Measured values reported in patent US20240317855A1 (EUREKA THERAPEUTICS, published 2024).

Target: GPC3 (glypican-3) on HEPG2 human liver cancer cells (human, UniProt P51654 25-580)
Experiment: cell-based or functional assay

Sequence of GPC3 (glypican-3) on HEPG2 human liver cancer cells (P51654 25-580): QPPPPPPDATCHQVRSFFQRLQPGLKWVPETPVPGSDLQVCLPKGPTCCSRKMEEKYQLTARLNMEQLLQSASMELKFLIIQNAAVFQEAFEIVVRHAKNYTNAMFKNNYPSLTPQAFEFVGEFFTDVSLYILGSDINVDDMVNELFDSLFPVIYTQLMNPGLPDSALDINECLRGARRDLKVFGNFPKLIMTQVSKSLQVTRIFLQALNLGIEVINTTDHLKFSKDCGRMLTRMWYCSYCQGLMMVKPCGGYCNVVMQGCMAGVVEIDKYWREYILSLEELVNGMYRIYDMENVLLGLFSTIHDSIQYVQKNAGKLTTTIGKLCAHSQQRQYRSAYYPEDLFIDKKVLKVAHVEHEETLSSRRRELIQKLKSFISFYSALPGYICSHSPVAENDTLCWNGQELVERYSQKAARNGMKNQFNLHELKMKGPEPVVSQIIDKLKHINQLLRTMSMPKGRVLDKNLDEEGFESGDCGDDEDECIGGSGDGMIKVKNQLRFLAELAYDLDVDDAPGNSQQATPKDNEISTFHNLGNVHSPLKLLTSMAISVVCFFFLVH

B1: anti-GPC3 CSR (chimeric co-stimulatory receptor: anti-GPC3 scFv fused to CD28 transmembrane and intracellular signaling sequences) (other)
chain: QSVLTQPPSVSAAPGQRVTISCSGTRSNIGSDYVSWYQHLPGTAPKLLVYGDNLRPSGIPDRFSASKSGTSATLGITGLQTGDEADYYCGTWDYTLNGVVFGGGTKLTVLGSRGGGGSGGGGSGGGGSLEMAQVQLVESGGGLVQPGGSLRLSCAASGFTFSSYAMSWVRQAPGKGLEWVSVIYSGGSSTYYADSVKGRFTISRDNSKNTLYLQMNSLRAEDTAVYYCARTSYLNHGDYWGQGTLVTVSSAAAIEVMYPPPYLDNEKSNGTIIHVKGKHLCPSPLFPGPSKPFWVLVVVGGVLACYSLLVTVAFIIFWVRSKRSRLLHSDYMNMTPRRPGPTRKHYQPYAPPRDFAAYRS
  specific killing of HEPG2 (AFP+/GPC3+) target cells by T cells expressing anti-AFP caTCR-1 (caTCR-1-0 or caTCR-1-TM5) and the anti-GPC3 CSR; Cytox 96 LDH assay, E:T 2.5:1, 16 hr: 55 to 65%
